B1: 单克隆抗体9D4 (antibody, V domains shown)
VH: QVHLQQSGPELVKPGASVKISCKSSGYALTDYYINWVKQRPGQGLEWIGWIFPGNDYTYFNEKFKDKATLTLDKSSRTAYMLLSSLTTEDSAVYFCARYGDGNYVYFDYWGQGTSLTVSS
VL: ETVLIQSPALMAASPGEKVTITCSVSSSISSSNLHWYQQKSGNSPKPWIYGTSNLASGVPVRFSGSGSGTSYSLTISSMEAEDAATYYCQQWSSYPLTFGAGTKLELK
B2: 单克隆抗体8H9 (antibody, V domains shown)
VH: QIQLVQSGPELKKPGETVKISCKASGYTFTTYGMSWVKQTPGKGLKWMGWINTYSGVPTYADDFKGRFAFSLETSASTASLQINNLKNEDTATYFCARYDPTAPDYAMDYWGQGTSVTVSS
VL: NIVMTQSPKSMSMSVGERVTLSCKASENVGTYVSWYQQKPEQSPKLLIYGASNRYTGVPDRFTGSGSATDFTLTISSVQAEDLADYHCGQSYIYPLTFGAGTNLELK

What was measured:
[1] = target: 重组RBD蛋白 (SARS-CoV-2 RBD蛋白) (SARS-CoV-2, UniProt P0DTC2 331-524)
SARS-CoV-2野生株假病毒 (刺突蛋白) = SARS-CoV-2野生株假病毒 (刺突蛋白) (SARS-CoV-2, UniProt P0DTC2 14-1273); test: cell-based or functional assay

Binder	EC50 [1] [µg/mL]	假病毒中和活性IC50 (SARS-CoV-2野生株假病毒 (刺突蛋白)) [ng/mL]
B1	0.0242	112
B2	0.0251	33
